Measurements: PMC5193325, “Cytochrome c Negatively Regulates NLRP3 Inflammasomes” (PLoS ONE, 2016)

Biological target: T1, NLRP3 (NLR family, pyrin domain containing 3), endogenous (human (endogenous in THP-1), UniProt Q96P20 1-1036)
T1 construct: NLRP3, endogenous in PMA-differentiated, LPS-primed THP-1 cells; also called NLPR3; source: endogenous, lysate or cytosolic fraction of LPS-primed THP-1 macrophage cells
Test: co-IP; NLRP3 immunoprecipitated from lysates of LPS-primed THP-1 macrophage cells, stimulated with ATP (5 mM, 1 h) or not; immunoblot for cytochrome c; lysis buffer 20 mM HEPES pH 7.4, 0.5% Triton X-100, 0.5% CHAPS, 10% glycerol; 4°C
Settings: partners not purified

T1 sequence (Q96P20 whole entry, the tested form may be a part): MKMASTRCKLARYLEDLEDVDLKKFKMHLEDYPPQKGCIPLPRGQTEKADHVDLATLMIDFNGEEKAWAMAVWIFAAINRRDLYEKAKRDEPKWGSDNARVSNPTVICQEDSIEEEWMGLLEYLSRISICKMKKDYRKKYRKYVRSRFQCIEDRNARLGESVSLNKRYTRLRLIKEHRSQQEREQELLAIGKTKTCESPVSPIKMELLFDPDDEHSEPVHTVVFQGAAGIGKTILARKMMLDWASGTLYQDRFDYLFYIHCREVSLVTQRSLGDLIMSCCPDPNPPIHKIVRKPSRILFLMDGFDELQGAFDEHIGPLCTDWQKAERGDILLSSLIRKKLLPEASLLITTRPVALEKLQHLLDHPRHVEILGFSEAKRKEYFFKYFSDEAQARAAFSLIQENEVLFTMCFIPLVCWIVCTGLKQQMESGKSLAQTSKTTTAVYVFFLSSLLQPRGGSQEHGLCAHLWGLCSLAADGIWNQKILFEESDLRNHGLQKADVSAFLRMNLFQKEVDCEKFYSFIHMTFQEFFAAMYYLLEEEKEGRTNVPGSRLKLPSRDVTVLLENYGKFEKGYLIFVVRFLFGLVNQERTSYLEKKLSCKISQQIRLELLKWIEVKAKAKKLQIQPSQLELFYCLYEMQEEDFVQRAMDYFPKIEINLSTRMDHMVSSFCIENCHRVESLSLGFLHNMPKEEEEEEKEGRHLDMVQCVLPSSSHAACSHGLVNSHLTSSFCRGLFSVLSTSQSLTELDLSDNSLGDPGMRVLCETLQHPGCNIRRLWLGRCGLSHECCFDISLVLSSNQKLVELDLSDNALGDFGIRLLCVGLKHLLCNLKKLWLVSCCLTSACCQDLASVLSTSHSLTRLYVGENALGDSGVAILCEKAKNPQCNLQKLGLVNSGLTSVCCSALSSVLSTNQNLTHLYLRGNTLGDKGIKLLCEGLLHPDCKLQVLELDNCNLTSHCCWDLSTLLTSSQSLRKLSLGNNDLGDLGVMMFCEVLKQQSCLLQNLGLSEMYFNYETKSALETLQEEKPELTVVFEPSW

B1: cytochrome c, endogenous (natural protein)
chain: not shown
notes: cytochrome c, endogenous in PMA-differentiated, LPS-primed THP-1 cells; source: endogenous, lysate or cytosolic fraction of LPS-primed THP-1 macrophage cells
  fold more cytochrome c co-precipitated with NLRP3 after ATP against no ATP: ~3 fold
